Reference: patent US20140094416A1, “SPARC ANGIOGENIC DOMAIN AND METHODS OF USE” (Abraxis BioScience, LLC, priority 2009, published 2014)

B1: SPARC: Secreted Protein, Acidic, Rich in Cysteines; recombinant human SPARC expressed and purified using HEK 293 cells (protein, listed as Homo sapiens)
chain: APQQEALPDETEVVEETVAEVTEVSVGANPVQVEVGEFDDGAEETEEEVVAENPCQNHHCKHGKVCELDENNTPMCVCQDPTSCPAPIGEFEKVCSNDNKTFDSSCHFFATKCTLEGTKKGHKLHLDYIGPCKYIPPCLDSELTEFPLRMRDWLKNVLVTLYERDEDNNLLTEKQKLRVKKIHENEKRLEAGDHPVELLARDFEKNYNMYIFPVHWQFGQLDQHPIDGYLSH

Key:
PC3 model = test: Tumor volume in mice, PC3 model; format: in vivo
Protocol: Tumor volume was measured in mice being treated with Abraxane alone (15 mg/kg administered daily for five days), Abraxane and Sutent (the Sutent administered at 30 mg/kg daily for 8 weeks), Abraxane and exogenous SPARC (the SPARC at […] administered twice a week for eight weeks), and finally, Abraxane, Sutent and SPARC together.
FIG. 1 depicts a graph plotting tumor volume (mm^3) against time (days) for these test conditions.

HUVEC [1] = test: HUVEC (3-D) tube formation assay; format: cell-based
Protocol: (§1) Recombinant human SPARC and genetically engineered variants were expressed and purified using HEK 293 cells maintained in hollow fiber bio-reactors. The angiogenic activity of rhSPARC and its variants was evaluated using a HUVEC tube formation assay and a HUVEC sprout formation bead assay.
(§2) In the HUVEC tube formation assay, rhSPARC was pro-angiogenic at 10 μg/mL and anti-angiogenic at 100 μg/mL. […] Additional rhSPARC variants with deletions and single/double amino acid substitutions tested in these assays included: Q3 deletion (BIO2), an inversion of the putative angiogenic domain (BIO5), a double K>Q substitution in the proposed angiogenic domain (BIO11), the genetic ablation of the putative catephsin K recognition sites (BIO8), and a proteolytic degradation product of rhSPARC. End terminal amino acid analysis indicated the angiogenic activity is localized to SEQ ID NO: 1.
FIG. 4 depicts the results of a HUVEC 3-D tube formation assay conducted with wild type SPARC and SPARC-D. The angiogenic behavior of wild type SPARC, as described in the previous example, can be seen in the graph; the angiogenic behavior increases as the concentration approaches 10 ug/ml and drops off as it approaches 100 ug/ml.

HUVEC [2] = test: HUVEC sprout formation bead assay; format: cell-based; settings: addition of rhSPARC
Protocol: as §1, §2

Molecule	efficacy of the SPARC/Abraxane combination (tumor volume) (PC3 model; Sutent 30 mg/kg daily for 8 weeks added to SPARC and Abraxane)	decrease in tumor volume (PC3 model; Sutent 30 mg/kg daily for 8 weeks with Abraxane, versus Abraxane alone)	angiogenic activity (HUVEC [1]; 10 μg/mL, listed as rhSPARC)	angiogenic activity (HUVEC [1]; 10 μg/mL, listed as wild type SPARC)	angiogenic activity (HUVEC [1]; 100 μg/mL, listed as rhSPARC)	angiogenic activity (HUVEC [1]; 100 μg/mL, listed as wild type SPARC)	tumor volume (PC3 model; exogenous SPARC 0.2 mg/ms twice a week for eight weeks with Abraxane, versus Abraxane alone)	effect on synergy of Abraxane and Sutent (tumor volume) (PC3 model; exogenous SPARC along with Abraxane and Sutent)	blood vessel maturity in sprout formation (HUVEC [2])
CCN(CC)CCNC(=O)c1c(C)[nH]c(/C=C2\C(=O)Nc3ccc(F)cc32)c1C [Sutent®, reference compound]	markedly improved	far greater decrease in tumor volume							
B1			pro-angiogenic	increases	anti-angiogenic	drops off	tumor volume is slightly greater	negates some of the synergistic affect	more mature blood vessels well supported by pericytes
